Publication PMC11374337 (2024)
Values belong to the molecule of their own block, whether it stands above or below them.

Assays:
[1] = target: paxillin LIM2/3 tandem domain (aa380-499) (human) (UniProt P49023); assay: NMR titration; 1H-15N HSQC, 250-300 μM 15N-labelled paxillin LIM2/3 (wt or 4A), unlabelled integrin β3 tail added; 298 K, 50 mM Na2HPO4, 150 mM NaCl, 0.1 mM ZnSO4, 1 mM DTT, 5% D2O, pH 7.5; global fit of CSPs
[2] = target: cytoplasmic tail of human integrin β1 (aa758-798) (human) (UniProt P05556); assay: NMR titration; 1H-15N HSQC, 300 μM 15N-labelled integrin β tail, unlabelled paxillin LIM2/3 added; 298 K, 50 mM Na2HPO4, 150 mM NaCl, 0.1 mM ZnSO4, 1 mM DTT, 5% D2O, pH 6.2; global fit of CSPs to a one site binding model
[3] = target: cytoplasmic tail of human integrin β3 (aa748-788) (human) (UniProt P05106); assay: as above
[4] = target: T1, ITGB3 (Homo sapiens (Human), UniProt P05106); assay: NMR
T1 chain: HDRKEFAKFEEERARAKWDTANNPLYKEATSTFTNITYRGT

[5] = target: T2, ITGB1 (Homo sapiens (Human), UniProt P05556); assay: NMR
T2 chain: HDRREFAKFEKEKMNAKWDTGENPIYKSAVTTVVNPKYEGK

- Kd [1]: 532 µM
Molecule: cytoplasmic tail of human integrin β3 (aa748-788) (from UniProt P05106 748-788) (domain or fragment)

- Kd [2]: 52 µM
- Kd [3]: 528 µM
- fraction bound at the end of the titration [3]: 70%
Molecule: paxillin LIM2/3 tandem domain (aa380-499) (from UniProt P49023-2 380-499) (domain or fragment)

- Kd [4]: 528 µM
- Kd [5]: 52 µM
B1: paxillin (protein)
chain: SPRCYYCNGPILDKVVTALDRTWHPEHFFCAQCGAFFGPEGFHEKDGKAYCRKDYFDMFAPKCGGCARAILENYISALNTLWHPECFVCRECFTPFVNGSFFEHDGQPYCEVHYHERRGS
